Source: publication PMC12417186

How the values were obtained:
[1] = biological target: C3b purified from plasma of donor D3 by the novel direct method (human) (UniProt P01024); test: SPR; C3b biotinylated at the thioester sulfhydryl, immobilised on SA sensor chip (950-1050 RU); analytes injected 2 min at 30 µl/min; 25°C; PBS, 0.05% Tween20, 1 mM MgCl2; 1:1 steady-state model; Biacore X100
[2] = biological target: C3b purified from plasma of donor D1 by the novel direct method (human) (UniProt P01024); test: as above
[3] = biological target: C3b (commercial), Complement Technology (human) (UniProt P01024); test: as above
[4] = biological target: C3b purified from plasma of donor D2 by the novel direct method (human) (UniProt P01024); test: as above
[5] = biological target: C3b purified from plasma of donor D3 by the novel direct method (human) (UniProt P01024); test: SPR; on-chip convertase assay: 600 nM FB and 100 nM FD injected 3 min over biotinylated C3b on SA chip, 10 min dissociation; 25°C; PBS, 0.05% Tween20, 1 mM MgCl2; exponential decay fit of 200-780 s; mean of three curves; 'estimated'
[6] = biological target: C3b purified from plasma of donor D1 by the novel direct method (human) (UniProt P01024); test: as above
[7] = biological target: C3b (commercial), Complement Technology (human) (UniProt P01024); test: as above
[8] = biological target: C3b purified from plasma of donor D2 by the novel direct method (human) (UniProt P01024); test: as above

Row | Kd [1] | Kd [2] | Kd [3] | Kd [4] | koff [5] | koff [6] | koff [7] | koff [8] | Substance
1 | 438 nM | 485 nM | 476 nM | 650 nM |  |  |  |  | complement receptor 1 (CR1) complement control protein (CCP) domains 15-17 (domain or fragment)
2 | 795 nM | 860 nM | 754 nM | 944 nM |  |  |  |  | variable domain of the complement receptor of the immunoglobulin superfamily (domain or fragment)
3 |  |  |  |  | 0.0019 s⁻¹ | 0.002 s⁻¹ | 0.0019 s⁻¹ | 0.002 s⁻¹ | Bb fragment of Factor B in the alternative pathway convertase C3bBb (from UniProt P00751 260-764) (domain or fragment)
4 | 10600 nM | 10500 nM | 9300 nM | 10400 nM |  |  |  |  | complement Factor H CCPs 19-20 (domain or fragment)
